{
  "source": "patent US20210063414A1",
  "about": "“METHODS FOR PREVENTING AND/OR TREATING BONE LOSS CONDITIONS BY MODULATING IRISIN” (Dana-Farber Cancer Institute, Inc., priority 2018, published 2021)",
  "key": {"MLO-Y4 cells": {"tested_on": "MLO-Y4 cells", "assay": "Anti-apoptosis assay: H2O2-induced cell death of MLO-Y4 osteocytes", "assay_type": "cell-based", "protocol": "Cells were stained with Hoechst 33342 and Eth-D1, and analyzed to determine the percentage of cell death. *: p<0.05, ***: p<0.001 vs 0.3 mM H2O2 treated condition. […] MLO-Y4 cells were seeded and incubated until 60% cell density. The cells were incubated with Freestyle293 medium for 4 hours and were treated with indicated concentrations of irisin for 16 hours. Sclerostin mRNA level was analyzed by qRT-PCR. Cyclophilin was used as a control house-keeping gene.\nCertain materials and methods were used to generate the results described herein. […] Cells were stained with Hoechst 33342 (ThermoFisher Scientific, catalog number H3570) and Eth-D1 (ThermoFisher Scientific, catalog number E1169) and analyzed to determine the percentage of cell death using ImageJ. […] Co-precipitated irisin was analyzed by immunoblot analysis against flag tag (Sigma Aldrich, catalog number A8592). The data shown in FIGS. 5A and 5B were generated from MLO-Y4 cells treated and analyzed as in the experiments used to generate the data shown in FIG. 2D, except that pre-treatment of 100 nM RGDS (FIG. 5A) or echistatin (R & D Systems Inc., catalog number 3202/100U) (FIG. 5B) for 10 minutes was performed before irisin treatment. […] Sclerostin mRNA level was analyzed by qPCR (FIG. 7A). […] Epididymal fats were collected, RNAs were extracted from the tissues, and mRNA levels of the indicated genes were analyzed by qPCR. […]"}, "[1]": {"assay": "Half-life of recombinant his-tag irisin in vivo, plasma immunoblot against his-tag", "conditions": "C57BL/6 mice, 1 mg/kg I.P.", "protocol": "C57BL/6 mice were injected with irisin (1 mg/kg, I.P.) or sterilized PBS and blood was collected at indicated time point. Irisin in plasma was detected using immunoblot analysis against his-tag."}},
  "note": "Several values for one entry are separate records, joined by “and”; a condition that tells them apart may be missing. Equal entries are not always repeated.",
  "data": [
    {"molecule": "irisin: secreted cleaved form of FNDC5; recombinant human/mouse irisin with C-terminal his tag produced in HEK293 cells (protein, left off: small tags and cut ends, secreted cleaved form of FNDC5; recombinant human/mouse irisin with C-terminal his tag produced in HEK293 cells) DSPSAPVNVTVRHLKANSAVVSWDVLEDEVVIGFAISQQKKDVRMLRFIQEVNTTTRSCALWDLEEDTEYIVHVQAISIQGQSPASEPVLFKTPREAEKMASKNKDEVTMKE", "values": [
      {"measurement": "concentration as low as which irisin prevented osteocyte cell death", "setting": "MLO-Y4 cells; MLO-Y4, 0.3 mM H2O2, dose dependent", "result": "1 ng/ml and 70 pM"},
      {"measurement": "concentrations at which irisin reduced hydrogen peroxide-induced apoptosis", "setting": "MLO-Y4 cells; MLO-Y4, hydrogen peroxide", "result": "1 to 500", "unit": "ng/mL"},
      {"measurement": "half-life in vivo", "setting": "[1]", "result": "less than an hour"}
    ]}
  ]
}
